Experiment [1] deals with VEGF-A165 (UniProt P15692). In words: blocking ELISA, VEGF-A165 to VEGFR2 (Example 13). For orientation: ELISA stands for enzyme-linked immunosorbent assay.
Experiment [2] has as its target VEGF-A165 (UniProt P15692). Nature of the experiment: blocking ELISA, VEGF-A 165-His to coated VEGFR2-Fc.
For experiment [3], the target named is T1, VEGF-B (UniProt P49765).
T1 sequence (looked up): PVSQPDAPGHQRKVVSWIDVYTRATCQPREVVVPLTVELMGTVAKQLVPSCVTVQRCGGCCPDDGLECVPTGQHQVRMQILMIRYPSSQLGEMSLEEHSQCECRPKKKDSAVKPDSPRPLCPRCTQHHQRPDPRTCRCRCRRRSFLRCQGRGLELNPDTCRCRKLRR
In words: ELISA, VEGF-B coated, anti-human Fc-HRP, OD450.

The target of experiment [4] is T1, VEGF-B. In words: ELISA, VEGF-B coated, anti-human Fc-HRP, OD450. The source holds these as a separate data set.
In experiment [5] the target is T1, VEGF-B. Nature of the experiment: ELISA, VEGF-B coated, anti-human Fc-HRP, OD450. This is another data set of the same source.
The target in experiment [6] is T2, PIGF (UniProt P49763).
T2 sequence (looked up): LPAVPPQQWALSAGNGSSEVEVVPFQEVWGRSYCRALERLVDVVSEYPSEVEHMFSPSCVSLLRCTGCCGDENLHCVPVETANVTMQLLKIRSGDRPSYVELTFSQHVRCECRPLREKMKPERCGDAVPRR
In words: ELISA, PlGF coated, anti-human Fc-HRP, OD450.

The target of experiment [7] is VEGF-A165 (UniProt P15692). In words: blocking ELISA, VEGF A165 to VEGFR2 (Example 16).
Experiment [8] concerns the target VEGF-A165 (UniProt P15692). In words: blocking ELISA, VEGF A165 to VEGFR1 (Example 16).
Experiment [9] deals with VEGF-A165 (UniProt P15692). In words: blocking ELISA, VEGF-A165 to VEGFR1 (Example 13).
In experiment [10] the target is VEGF-A165 (UniProt P15692). In words: blocking ELISA: His-VEGF-A165 premixed with sample, binding to coated VEGFR2-Fc read with anti-His-HRP.
In experiment [11] the target is VEGF-A165 (UniProt P15692). Nature of the experiment: blocking ELISA, VEGF-A 165-His to coated VEGFR2-Fc; row head prints uM, paragraph 129 and ng/ml row give nM.
In experiment [12] the target is T2, PIGF. In words: ELISA, PlGF coated, anti-human Fc-HRP, OD450. This is another data set of the same source.
Experiment [13] concerns the target T2, PIGF. Nature of the experiment: ELISA, PlGF coated, anti-human Fc-HRP, OD450. The source holds these as a separate data set.
Experiment [14] concerns the target VEGF-A165 (UniProt P15692). Nature of the experiment: ELISA binding to VEGF-A165, absorbance 450 nm.

As a reminder, the EC50 is the midpoint of the concentration-response curve. Lower therefore signals higher potency in that assay.

Where two headings read alike, the source gives them in different places.

Sequence of Eylea (Fc fusion) (chain): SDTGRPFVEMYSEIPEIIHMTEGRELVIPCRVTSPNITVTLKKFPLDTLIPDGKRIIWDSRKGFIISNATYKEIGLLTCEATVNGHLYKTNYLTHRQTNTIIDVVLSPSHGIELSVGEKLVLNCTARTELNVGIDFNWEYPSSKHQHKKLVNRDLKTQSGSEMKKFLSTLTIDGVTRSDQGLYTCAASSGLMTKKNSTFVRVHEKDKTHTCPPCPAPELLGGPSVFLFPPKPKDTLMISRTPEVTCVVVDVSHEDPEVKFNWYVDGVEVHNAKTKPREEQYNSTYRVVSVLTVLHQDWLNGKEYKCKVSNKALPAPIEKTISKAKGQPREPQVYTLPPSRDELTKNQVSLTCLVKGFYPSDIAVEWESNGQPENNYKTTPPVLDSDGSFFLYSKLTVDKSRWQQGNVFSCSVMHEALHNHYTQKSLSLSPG
Sequence of VEGF-A165 (P15692 other isoform, or with tags, fused parts or gaps limits assumed): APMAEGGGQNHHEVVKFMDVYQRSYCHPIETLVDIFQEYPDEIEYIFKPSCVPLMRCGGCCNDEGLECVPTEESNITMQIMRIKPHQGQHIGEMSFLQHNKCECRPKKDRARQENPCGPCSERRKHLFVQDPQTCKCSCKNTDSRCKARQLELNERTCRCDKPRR

Turning to Eylea (Fc fusion), the EC50 is 2.23 nM in the experiment with VEGF-A165 [1]; 0.32 µg/mL in the experiment with VEGF-A165 [2]; 0.64 nM with VEGF-B [3]; 1.07 nM with VEGF-B [4]; 0.94 nM with VEGF-B [5]; 0.1 nM with PIGF [6]. The EC50 is 3.94 nM with VEGF-A165 [7]; 6.96 nM with VEGF-A165 [8]; 4.64 nM in the experiment with VEGF-A165 [9]; 1.7 nM with VEGF-A165 [10]; 3200 nM with VEGF-A165 [11]; 0.223 nM with PIGF [12]. The half-maximal effective concentration (EC50) with PIGF [13] came to 0.17 nM; in the experiment with VEGF-A165 [14], 0.138 nM.

Source of the values: patent publication US20250002557A1.
